According to patent WO2012028683A1 (dated 2012):

Target: T1, recombinant human SOST (human, UniProt Q9BQB4 24-213, labeled with Cy5 (site not stated))
T1 construct: Acceptor-labelled partner in the FRET assay; also called sclerostin; Cy5-SOST
T1 sequence (looked up): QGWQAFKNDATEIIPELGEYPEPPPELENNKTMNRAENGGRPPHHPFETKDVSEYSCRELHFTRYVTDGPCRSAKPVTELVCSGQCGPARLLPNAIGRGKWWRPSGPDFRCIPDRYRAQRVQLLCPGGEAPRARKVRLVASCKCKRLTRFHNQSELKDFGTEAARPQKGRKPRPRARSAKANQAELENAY
Experiment: FRET competition assay (inhibition of SOST binding to LRP6(Fc)), antibody released from the PBS gel

B1: ANTIBODY 1 (antibody, human IgG2, lambda, V domains shown)
VH: QVQLVESGGGLVQPGGSLRLSCAASGFTFRSHWLSWVRQAPGKGLEWVSNINYDGSSTYYADSVKGRFTISRDNSKNTLYLQMNSLRAEDTAVYYCARDTYLHFDYWGQGTLVTVSS
VL: DIALTQPASVSGSPGQSITISCTGTSSDVGDINDVSWYQQHPGKAPKLMIYDVNNRPSGVSNRFSGSKSGNTASLTISGLQAEDEADYYCQSYAGSYLSEVFGGGTKLTVLG
notes: also called anti-sclerostin antibody; mAb
binding result: binds
